Numbering of substitutions follows the chain as printed.
T1: mouse VEGF165 (Mus musculus, UniProt Q00731)
T1 sequence (Q00731 27-190 isoform Q00731-2): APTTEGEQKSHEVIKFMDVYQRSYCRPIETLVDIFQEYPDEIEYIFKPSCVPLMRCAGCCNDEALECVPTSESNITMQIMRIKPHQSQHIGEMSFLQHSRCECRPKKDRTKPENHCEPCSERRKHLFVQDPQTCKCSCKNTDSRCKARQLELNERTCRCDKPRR

B1: 21M18: anti-DLL4 antibody, parental antibody (Hoey et al., 2009; U.S. Pat. No. 7,750,124) (antibody, V domains shown)
VH: QVQLVQSGAEVKKPGASVKISCKASGYSFTAYYIHWVKQAPGQGLEWIGYISSYNGATNYNQKFKGRVTFTTDTSTSTAYMELRSLRSDDTAVYYCARDYDYDVGMDYWGQGTLVTVSS
VL: DIVMTQSPDSLAVSLGERATISCRASESVDNYGISFMKWFQQKPGQPPKLLIYAASNQGSGVPDRFSGSGSGTDFTLTISSLQAEDVAVYYCQQSKEVPWTFGGGTKVEIK
B2: 219R45-MB-21R79: anti-VEGF/anti-DLL4 monovalent/bispecific antibody, heavy chains SEQ ID NO:7 and 6, light chains SEQ ID NO:8 (antibody)
heavy 1: QVQLVQSGAEVKKPGASVKVSCKASGYTFTNYWMHWVRQAPGQGLEWMGDINPSNGRTSYKEKFKRRVTLSVDKSSSTAYMELSSLRSEDTAVYFCTIHYDDKYYPLMDYWGQGTLVTVSSASTKGPSVFPLAPCSRSTSESTAALGCLVKDYFPEPVTVSWNSGALTSGVHTFPAVLQSSGLYSLSSVVTVPSSNFGTQTYTCNVDHKPSNTKVDKTVERKCCVECPPCPAPPVAGPSVFLFPPKPKDTLMISRTPEVTCVVVDVSHEDPEVQFNWYVDGVEVHNAKTKPREEQFNSTFRVVSVLTVVHQDWLNGKEYKCKVSNKGLPAPIEKTISKTKGQPREPQVYTLPPSREKMTKNQVSLTCLVKGFYPSDIAVEWESNGQPENNYKTTPPMLKSDGSFFLYSKLTVDKSRWQQGNVFSCSVMHEALHNHYTQKSLSLSPGK
heavy 2: QVQLVQSGAEVKKPGASVKISCKASGYSFTAYYIHWVKQAPGQGLEWIGYIANYNRATNYNQKFKGRVTFTTDTSTSTAYMELRSLRSDDTAVYYCARDYDYDVGMDYWGQGTLVTVSSASTKGPSVFPLAPCSRSTSESTAALGCLVKDYFPEPVTVSWNSGALTSGVHTFPAVLQSSGLYSLSSVVTVPSSNFGTQTYTCNVDHKPSNTKVDKTVERKCCVECPPCPAPPVAGPSVFLFPPKPKDTLMISRTPEVTCVVVDVSHEDPEVQFNWYVDGVEVHNAKTKPREEQFNSTFRVVSVLTVVHQDWLNGKEYKCKVSNKGLPAPIEKTISKTKGQPREPQVYTLPPSREEMTKNQVSLTCLVEGFYPSDIAVEWESNGQPENNYKTTPPMLDSDGSFFLYSELTVDKSRWQQGNVFSCSVMHEALHNHYTQKSLSLSPGK
light: DIVMTQSPDSLAVSLGERATISCRASESVDNYGISFMKWFQQKPGQPPKLLIYAASNQGSGVPDRFSGSGSGTDFTLTISSLQAEDVAVYYCQQSKEVPWTFGGGTKVEIKRTVAAPSVIFPPSDEQLKSGTASVVCLLNNFYPREAKVQWKVDNALQSGNSQESVTEQDSKDSTYSLSSTLTLSKADYEKHKVYACEVTHQGLSSPVTKSFNRGEC
modifications: 21R79 Heavy chain without predicted signal sequence; Light chain without predicted signal sequence
B3: 219R45-MB-21M18: anti-VEGF/anti-DLL4 monovalent/bispecific antibody, heavy chains SEQ ID NO:7 and 5, light chains SEQ ID NO:8 (antibody)
heavy 1: B2 heavy 1
heavy 2: B2 heavy 2 with A52S, N53S, R56G
light: B2 light
modifications: 21R79 Heavy chain without predicted signal sequence; 21M18 Heavy chain without predicted signal sequence; Light chain without predicted signal sequence

Key:
mouse VEGF165 = biological target: T1, mouse VEGF165; assay: Biacore binding affinity (KD) to mouse VEGF
Protocol: (§1) The KDs of parental antibodies anti-VEGF 219R45 (IgG format), anti-DLL4 21R79 (IgG format), anti-DLL4 21M18 (IgG format) and bispecific antibodies 219R45-MB-21M18 and 219R45-MB-21R79 were determined using a Biacore 2000 system from Biacore LifeSciences (GE Healthcare). Recombinant human DLL4-Fc or mouse DLL4-Fc proteins were immobilized on CM5 carboxyl chips using standard amine-based chemistry (NHS/EDC) and blocked with ethanolamine. Recombinant human VEGF165 or mouse VEGF165 were biotinylated and immobilized on streptavidin chips. The antibodies were serially diluted 2-fold from 100 nM to 0.78 nM in HBS-P (0.01M HEPES pH7.4, 0.15M NaCl, 0.005% v/v Polysorbate 20). For each antibody, all 8 dilutions were sequentially injected over a specific chip. Kinetic data were collected over time and were fit using the simultaneous global fit equation to yield affinity constants (KD values) for each bispecific antibody.

mouse DLL4-Fc = assay: Biacore binding affinity (KD) to mouse DLL4; conditions: Biacore 2000, mouse DLL4-Fc on CM5 chip; read-out: KD mDLL4
Protocol: as §1

[1] = test system: DLL4-induced Notch signaling; assay: DLL4-induced Notch signaling luciferase reporter assay in Notch2-expressing PC3 cells; format: cell-based; conditions: coated human DLL4 100 ng/well, antibody 20 to 0.064 ug/ml
Protocol: FIG. 4. Inhibition of DLL4-induced Notch signaling by anti-VEGF/anti-DLL4 bispecific antibodies. Luciferase activity was measured using a dual luciferase assay kit with firefly luciferase activity normalized to Renilla luciferase activity. 219R45-MB-21M18 (-●-); 219R45-MB-21R79 (-▪-); 21M18 (-∘-); 21R79 (-□-).
Human PC3 cells were transfected with an expression vector encoding a full-length human Notch2 receptor and a firefly luciferase reporter vector (8× CBF-luciferase reporter) that is responsive to Notch signaling. The cells were also transfected with a Renilla luciferase reporter (Promega, Madison, Wis.) as an internal control for transfection efficiency. Purified human DLL4 protein was coated onto 96-well plates at 100 ng/well and Notch2-expressing PC3-luc cells were added to the wells. Anti-VEGF/anti-DLL4 bispecific antibodies 219R45-MB-21M18, 219R45-MB-21R79, parental anti-DLL4 antibodies 21M18, 21R79 or a control antibody LZ1 were serially diluted 5-fold from 20 ug/ml to 0.064 ug/ml, added to the appropriate wells, and incubated overnight. Luciferase activity was determined using a dual luciferase assay kit (Promega, Madison, Wis.) with firefly luciferase activity normalized to Renilla luciferase activity.

[2] = test system: OMP-PN8 pancreatic tumor cells; assay: Tumorigenicity of OMP-PN8 pancreatic tumor cells after treatment (serial transplantation); format: in vivo, NOD/SCID mice; conditions: 90 cells from treated tumors transplanted, day 55, no treatment; 21M18, bevacizumab 15 mg/kg, bispecifics 30 mg/kg, gemcitabine 70 mg/kg, four weeks
Protocol: FIG. 6. Tumorigenicity of pancreatic tumor cells after treatment with anti-VEGF/anti-DLL4 bispecific antibodies. OMP-PN8 tumor cells from mice treated with control antibody, anti-hDLL4 antibody 21M18, anti-VEGF antibody bevacizumab, or anti-VEGF/anti-DLL4 bispecific antibodies 219R45-MB-21M18 or 219R45-MB-21R79 with or without gemcitabine were processed to single cell suspensions, and serially transplanted into mice. 90 cells from each treatment group were injected subcutaneously into NOD/SCID mice. Tumors were allowed to grow with no treatment. Data is shown as tumor volume (mm^3) on day 55. Tumor frequency is shown as number of tumors over total number of mice injected in each group.
Mice bearing OMP-PN8 pancreatic tumors were treated with control antibody (15 mg/kg), anti-hDLL4 antibody 21M18 (15 mg/kg), anti-VEGF antibody bevacizumab (15 mg/kg), or anti-VEGF/anti-DLL4 bispecific antibodies 219R45-MB-21M18 or 219R45-MB-21R79 (30 mg/kg) with or without gemcitabine (70 mg/kg). Following four weeks of treatment, tumors were harvested, processed to single cell suspensions and the human tumor cells were purified by immunomagnetic depletion of murine cells. 90 human tumor cells from each treatment group were transferred to a new cohort of mice (n=10 mice/group). Tumors were allowed to grow for 55 days without any treatment and tumor volumes were measured with electronic calipers.

OMP-C8 colon tumor = assay: Tumorigenicity of OMP-C8 colon tumors after treatment (serial transplantation); format: in vivo, NOD/SCID mice; conditions: 150 cells from treated tumors transplanted, day 68; for tumor growth frequency, single agents: without irinotecan combination
Protocol: FIG. 10. Tumorigenicity of […] colon tumor cells after treatment with anti-VEGF/anti-DLL4 bispecific antibodies. Tumors from mice treated with control antibody, anti-hDLL4 antibody 21M18, anti-VEGF antibody bevacizumab, a combination of 21M18 and bevacizumab, or anti-VEGF/anti-DLL4 bispecific antibodies 219R45-MB-21M18 or 219R45-MB-21R79 with or without irinotecan were processed to single cell suspensions, and serially transplanted into mice. 150 cells from each treatment group were injected subcutaneously into NOD/SCID mice. Tumors were allowed to grow with no treatment. Data are shown as tumor volume (mm^3) on day 68.
Single cell suspensions of OMP-C8 colon tumor xenografts (20,000 cells) were injected subcutaneously into the flanks of 6-8 week old NOD/SCID mice. Tumors were allowed to grow for 33 days until they reached an average volume of 300 mm^3. The mice were randomized (n=5 per group) and treated with anti-DLL4 antibody 21M18, anti-VEGF antibody bevacizumab, a combination of antibodies 21M18 and bevacizumab, anti-VEGF/anti-DLL4 bispecific antibody 219R45-MB-21M18, anti-VEGF/anti-DLL4 bispecific antibody 219R45-MB-21R79, or control antibody, either in combination with irinotecan or without irinotecan. Antibodies and irinotecan were dosed weekly by injection into the intraperitoneal cavity. Antibodies 21M18 and bevacizumab were dosed at 7.5 mg/kg, bispecific antibodies 219R45-MB-21M18 and 219R45-MB-21R79 were dosed at 15 mg/kg, and irinotecan was dosed at 45 mg/kg. Tumors were harvested after 4 weeks, processed into single cell suspensions, and the human tumor cells were isolated. 150 tumor cells from each experimental group were injected subcutaneously into a new cohort of mice (n=10 per group) and tumors were allowed to grow without treatment. Tumor growth was monitored and tumor volumes were measured with electronic calipers.

Sequence of mouse DLL4-Fc (Q9JI71 27-519 limits assumed): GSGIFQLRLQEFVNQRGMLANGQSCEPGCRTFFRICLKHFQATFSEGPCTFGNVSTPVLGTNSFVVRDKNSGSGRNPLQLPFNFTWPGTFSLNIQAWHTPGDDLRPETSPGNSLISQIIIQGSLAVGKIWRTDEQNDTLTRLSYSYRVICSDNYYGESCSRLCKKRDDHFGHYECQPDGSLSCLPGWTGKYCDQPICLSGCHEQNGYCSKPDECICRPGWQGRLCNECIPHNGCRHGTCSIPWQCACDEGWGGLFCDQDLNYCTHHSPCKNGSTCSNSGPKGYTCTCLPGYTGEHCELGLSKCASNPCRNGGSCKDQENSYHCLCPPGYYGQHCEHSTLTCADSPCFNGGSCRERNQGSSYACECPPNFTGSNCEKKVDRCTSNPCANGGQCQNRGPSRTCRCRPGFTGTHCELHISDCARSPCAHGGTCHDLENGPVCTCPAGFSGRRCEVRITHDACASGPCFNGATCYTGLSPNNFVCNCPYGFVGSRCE

| Kd (mouse VEGF165; Biacore 2000, biotinylated mouse VEGF165 on streptavidin chip, read-out: KD mVEGF) [µM] | Molecule | Kd (mouse DLL4-Fc) [µM] | inhibition of DLL4-induced Notch signaling [1] | tumor growth frequency (mice with tumors) [2] | tumor growth frequency, single agents (OMP-C8 colon tumor) | binding to mouse VEGF (in words) (mouse VEGF165) | tumor growth frequency, combination of irinotecan and antibodies (OMP-C8 colon tumor; with irinotecan 45 mg/kg) |
| --- | --- | --- | --- | --- | --- | --- | --- |
| > 0.1 | B1 | > 0.1 | inhibited DLL4-induced Notch signaling | 5 out of 10 | reduced tumor growth frequency |  |  |
|  | B2 | > 0.1 | inhibited DLL4-induced Notch signaling | 4 out of 10 | reduced tumor growth frequency | bind mouse VEGF |  |
|  | B3 | > 0.1 | inhibited DLL4-induced Notch signaling only at high antibody concentrations | 5 out of 10 | reduced tumor growth frequency | bind mouse VEGF | had the greatest effect in reducing tumor growth frequency |

Source: US11512128B2, “VEGF/DLL4 binding agents and uses thereof” (MEREO BIOPHARMA 5, INC., priority 2011, dated 2022)
